The record followed here is article PMC11574045, “A cofactor-induced repressive type of transcription factor condensation can be induced by synthetic peptides to suppress tumorigenesis” (The EMBO Journal, 2024).

The assay concerns HEK293FT cells transfected with TF library. Nature of the assay: Screening of TF condensates based on fluorescent puncta. It counts as cell-based. The following applies: Figure 1B numerical data; TF library screen, one value per transcriptional factor. The gist of the method: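 Each TF construct was introduced into HEK293FT cells using PEI at 4.8 μg/ml; glucose deprivation versus normal medium lasted 12 h. Automated confocal-style imaging of tagged TF staining, 50 fields per well, gave the puncta data.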

B1: HNF4G (protein, UniProt Q14541 1-408, looked up)
Hepatocyte nuclear factor …: MNTTDNGVNCLCAICGDRATGKHYGASSCDGCKGFFRRSIRKSHVYSCRFSRQCVVDKDKRNQCRYCRLRKCFRAGMKKEAVQNERDRISTRRSTFDGSNIPSINTLAQAEVRSRQISVSSPGSSTDINVKKIASIGDVCESMKQQLLVLVEWAKYIPAFCELPLDDQVALLRAHAGEHLLLGATKRSMMYKDILLLGNNYVIHRNSCEVEISRVANRVLDELVRPFQEIQIDDNEYACLKAIVFFDPDAKGLSDPVKIKNMRFQVQIGLEDYINDRQYDSRGRFGELLLLLPTLQSITWQMIEQIQFVKLFGMVKIDNLLQEMLLGGASNDGSHLHHPMHPHLSQDPLTGQTILLGPMSTLVHADQISTPETPLPSPPQGSGQEQYKIAANQASVISHQHLSKQKQL
Consider B1, for which the “Z score of condensed fraction” value was determined as 0.7637.

B2: HLF (protein, UniProt Q16534 1-295, looked up)
Hepatic leukemia factor: MEKMSRPLPLNPTFIPPPYGVLRSLLENPLKLPLHHEDAFSKDKDKEKKLDDESNSPTVPQSAFLGPTLWDKTLPYDGDTFQLEYMDLEEFLSENGIPPSPSQHDHSPHPPGLQPASSAAPSVMDLSSRASAPLHPGIPSPNCMQSPIRPGQLLPANRNTPSPIDPDTIQVPVGYEPDPADLALSSIPGQEMFDPRKRKFSEEELKPQPMIKKARKVFIPDDLKDDKYWARRRKNNMAAKRSRDARRLKENQIAIRASFLEKENSALRQEVADLRKELGKCKNILAKYEARHGPL
Turning to B2, the “Z score of condensed fraction” value amounted to 2.55.

B3: HMG20B (protein, UniProt Q9P0W2 1-317, looked up)
SWI/SNF-related …: MSHGPKQPGAAAAPAGGKAPGQHGGFVVTVKQERGEGPRAGEKGSHEEEPVKKRGWPKGKKRKKILPNGPKAPVTGYVRFLNERREQIRTRHPDLPFPEITKMLGAEWSKLQPTEKQRYLDEAEREKQQYMKELRAYQQSEAYKMCTEKIQEKKIKKEDSSSGLMNTLLNGHKGGDCDGFSTFDVPIFTEEFLDQNKAREAELRRLRKMNVAFEEQNAVLQRHTQSMSSARERLEQELALEERRTLALQQQLQAVRQALTASFASLPVPGTGETPTLGTLDFYMARLHGAIERDPAQHEKLIVRIKEILAQVASEHL
With B3, the “Z score of condensed fraction” value is -0.2795.

B4: HMX2 (protein, UniProt A2RU54 1-273, looked up)
Homeobox protein HMX2: MGSKEDAGKGCPAAGGVSSFTIQSILGGGPSEAPREPVGWPARKRSLSVSSEEEEPDDGWKAPACFCPDQHGPKEQGPKHHPPIPFPCLGTPKGSGGSGPGGLERTPFLSPSHSDFKEEKERLLPAGSPSPGSERPRDGGAERQAGAAKKKTRTVFSRSQVYQLESTFDMKRYLSSSERACLASSLQLTETQVKTWFQNRRNKWKRQLSAELEAANMAHASAQTLVSMPLVFRDSSLLRVPVPRSLAFPAPLYYPGSNLSALPLYNLYNKLDY
B4: the “Z score of condensed fraction” value came out at 0.8931.

B5: HMBOX1 (protein, UniProt Q6NT76 1-420, looked up)
Homeobox-containing protein 1: MLSSFPVVLLETMSHYTDEPRFTIEQIDLLQRLRRTGMTKHEILHALETLDRLDQEHSDKFGRRSSYGGSSYGNSTNNVPASSSTATASTQTQHSGMSPSPSNSYDTSPQPCTTNQNGRENNERLSTSNGKMSPTRYHANSMGQRSYSFEASEEDLDVDDKVEELMRRDSSVIKEEIKAFLANRRISQAVVAQVTGISQSRISHWLLQQGSDLSEQKKRAFYRWYQLEKTNPGATLSMRPAPIPIEDPEWRQTPPPVSATSGTFRLRRGSRFTWRKECLAVMESYFNENQYPDEAKREEIANACNAVIQKPGKKLSDLERVTSLKVYNWFANRRKEIKRRANIEAAILESHGIDVQSPGGHSNSDDVDGNDYSEQDDSTSHSDHQDPISLAVEMAAVNHTILALARQGANEIKTEALDDD
As for B5, the “Z score of condensed fraction” value is given as -0.9564.

B6: HMG1 (protein, UniProt P09429 1-215, looked up)
High mobility group protein B1: MGKGDPKKPRGKMSSYAFFVQTCREEHKKKHPDASVNFSEFSKKCSERWKTMSAKEKGKFEDMAKADKARYEREMKTYIPPKGETKKKFKDPNAPKRPPSAFFLFCSEYRPKIKGEHPGLSIGDVAKKLGEMWNNTAADDKQPYEKKAAKLKEKYEKDIAAYRAKGKPDAAKKGVVKAEKSKKKKEEEEDEEDEEDEEEEEDEEDEDEEEDDDDE
B6: the “Z score of condensed fraction” value was found to be 1.213.

B7: HOXC13 (protein, UniProt P31276 1-330, looked up)
Homeobox protein Hox-C13: MTTSLLLHPRWPESLMYVYEDSAAESGIGGGGGGGGGGTGGAGGGCSGASPGKAPSMDGLGSSCPASHCRDLLPHPVLGRPPAPLGAPQGAVYTDIPAPEAARQCAPPPAPPTSSSATLGYGYPFGGSYYGCRLSHNVNLQQKPCAYHPGDKYPEPSGALPGDDLSSRAKEFAFYPSFASSYQAMPGYLDVSVVPGISGHPEPRHDALIPVEGYQHWALSNGWDSQVYCSKEQSQSAHLWKSPFPDVVPLQPEVSSYRRGRKKRVPYTKVQLKELEKEYAASKFITKEKRRRISATTNLSERQVTIWFQNRRVKEKKVVSKSKAPHLHST
As to B7, the “Z score of condensed fraction” value is given as -0.9976.

B8: HLX (protein, UniProt Q14774 1-488, looked up)
H2.0-like homeobox protein: MFAAGLAPFYASNFSLWSAAYCSSAGPGGCSFPLDPAAVKKPSFCIADILHAGVGDLGAAPEGLAGASAAALTAHLGSVHPHASFQAAARSPLRPTPVVAPSEVPAGFPQRLSPLSAAYHHHHPQQQQQQQQPQQQQPPPPPRAGALQPPASGTRVVPNPHHSGSAPAPSSKDLKFGIDRILSAEFDPKVKEGNTLRDLTSLLTGGRPAGVHLSGLQPSAGQFFASLDPINEASAILSPLNSNPRNSVQHQFQDTFPGPYAVLTKDTMPQTYKRKRSWSRAVFSNLQRKGLEKRFEIQKYVTKPDRKQLAAMLGLTDAQVKVWFQNRRMKWRHSKEAQAQKDKDKEAGEKPSGGAPAADGEQDERSPSRSEGEAESESSDSESLDMAPSDTERTEGSERSLHQTTVIKAPVTGALITASSAGSGGSSGGGGNSFSFSSASSLSSSSTSAGCASSLGGGGASELLPATQPTASSAPKSPEPAQGALGCL
For the molecule B8, the “Z score of condensed fraction” value is listed as 2.079.

B9: ARID4A (protein, UniProt P29374 1-1257, looked up)
AT-rich interactive …: MKAADEPAYLTVGTDVSAKYRGAFCEAKIKTVKRLVKVKVLLKQDNTTQLVQDDQVKGPLRVGAIVETRTSDGSFQEAIISKLTDASWYTVVFDDGDERTLRRTSLCLKGERHFAESETLDQLPLTNPEHFGTPVIAKKTNRGRRSSLPVTEDEKEEESSEEEDEDKRRLNDELLGKVVSVVSATERTEWYPALVISPSCNDDITVKKDQCLVRSFIDSKFYSIARKDIKEVDILNLPESELSTKPGLQKASIFLKTRVVPDNWKMDISEILESSSSDDEDGPAEENDEEKEKEAKKTEEEVPEEELDPEERDNFLQQLYKFMEDRGTPINKPPVLGYKDLNLFKLFRLVYHQGGCDNIDSGAVWKQIYMDLGIPILNSAASYNVKTAYRKYLYGFEEYCRSANIQFRTVHHHEPKVKEEKKDLEESMEEALKLDQEMPLTEVKSEPEENIDSNSESEREEIELKSPRGRRRIARDVNSIKKEIEEEKTEDKLKDNDTENKDVDDDYETAEKKENELLLGRKNTPKQKEKKIKKQEDSDKDSDEEEEKSQEREETESKCDSEGEEDEEDMEPCLTGTKVKVKYGRGKTQKIYEASIKSTEIDDGEVLYLVHYYGWNVRYDEWVKADRIIWPLDKGGPKKKQKKKAKNKEDSEKDEKRDEERQKSKRGRPPLKSTLSSNMPYGLSKTANSEGKSDSCSSDSETEDALEKNLINEELSLKDELEKNENLNDDKLDEENPKISAHILKENDRTQMQPLETLKLEVGENEQIVQIFGNKMEKTEEVKKEAEKSPKGKGRRSKTKDLSLEIIKISSFGQNEAGSEPHIEAHSLELSSLDNKNFSSATEDEIDQCVKEKKLKRKILGQSSPEKKIRIENGMEMTNTVSQERTSDCIGSEGMKNLNFEQHFERENEGMPSLIAESNQCIQQLTSERFDSPAEETVNIPLKEDEDAMPLIGPETLVCHEVDLDDLDEKDKTSIEDVAVESSESNSLVSIPPALPPVVQHNFSVASPLTLSQDESRSVKSESDITIEVDSIAEESQEGLCERESANGFETNVASGTCSIIVQERESREKGQKRPSDGNSGLMAKKQKRTPKRTSAAAKNEKNGTGQSSDSEDLPVLDNSSKCTPVKHLNVSKPQKLARSPARISPHIKDGEKDKHREKHPNSSPRTYKWSFQLNELDNMNSTERISFLQEKLQEIRKYYMSLKSEVATIDRRRKRLKKKDREVSHAGASMSSASSDTGMSPSSSSPPQNVLAVECR
Regarding B9, the “Z score of condensed fraction” value is 0.8979.

B10: ARID3C (protein, UniProt A6NKF2 1-412, looked up)
AT-rich interactive …: MEALQKQQAARLAQGVGPLAPACPLLPPQPPLPDHRTLQAPEGALGNVGAEEEEDAEEDEEKREEAGAEEEAAEESRPGAQGPSSPSSQPPGLHPHEWTYEEQFKQLYELDADPKRKEFLDDLFSFMQKRGTPVNRVPIMAKQVLDLYALFRLVTAKGGLVEVINRKVWREVTRGLSLPTTITSAAFTLRTQYMKYLYPYECETRALSSPGELQAAIDSNRREGRRQAYTATPLFGLAGPPPRGAQDPALGPGPAPPATQSSPGPAQGSTSGLPAHACAQLSPSPIKKEESGIPNPCLALPVGLALGPTREKLAPEEPPEKRAVLMGPMDPPRPCMPPSFLPRGKVPLREERLDGPLNLAGSGISSINMALEINGVVYTGVLFARRQPVPASQGPTNPAPPPSTGPPSSILP
With B10, the “Z score of condensed fraction” value is on record as 0.4617.

B11: HMG20A (protein, UniProt Q9NP66 1-347, looked up)
High mobility group protein …: MENLMTSSTLPPLFADEDGSKESNDLATTGLNHPEVPYSSGATSSTNNPEFVEDLSQGQLLQSESSNAAEGNEQRHEDEQRSKRGGWSKGRKRKKPLRDSNAPKSPLTGYVRFMNERREQLRAKRPEVPFPEITRMLGNEWSKLPPEEKQRYLDEADRDKERYMKELEQYQKTEAYKVFSRKTQDRQKGKSHRQDAARQATHDHEKETEVKERSVFDIPIFTEEFLNHSKAREAELRQLRKSNMEFEERNAALQKHVESMRTAVEKLEVDVIQERSRNTVLQQHLETLRQVLTSSFASMPLPGSGETPTVDTIDSYMNRLHSIILANPQDNENFIATVREVVNRLDR
Take B11: the “Z score of condensed fraction” value is -0.5061.
